Publication PMC2120494

Molecular target: R-Ras or R-Ras(38V)
Assay: co-IP

Raf-1 kinase, baculovirus-produced (from UniProt P04049 1-648) (enzyme)
percent of total Raf co-immunoprecipitated: 10 to 20%
